In paper doi:10.1101/2020.07.24.219303 one finds stoichiometry N (ParC:ParA molar ratio) data, which are given here for 1 substance.

The target of the assay is ParA (pMF1.22) co-expressed with ParC from pET15b (Myxococcus fulvus 124B02 (plasmid pMF1)). As to the kind of experiment: SDS-PAGE band identified by mass spectrometry.

For the substance “ParC (pMF1.21) co-expressed in front of ParA from pET15b (natural protein)”, the stoichiometry N (ParC:ParA molar ratio) amounted to 1.
